From article PMC5435084

Target: Robo1-CC3 (UniProt Q9Y6N7)
Experiment: SPR

Chain of Robo1-CC3 (Q9Y6N7 26-1651): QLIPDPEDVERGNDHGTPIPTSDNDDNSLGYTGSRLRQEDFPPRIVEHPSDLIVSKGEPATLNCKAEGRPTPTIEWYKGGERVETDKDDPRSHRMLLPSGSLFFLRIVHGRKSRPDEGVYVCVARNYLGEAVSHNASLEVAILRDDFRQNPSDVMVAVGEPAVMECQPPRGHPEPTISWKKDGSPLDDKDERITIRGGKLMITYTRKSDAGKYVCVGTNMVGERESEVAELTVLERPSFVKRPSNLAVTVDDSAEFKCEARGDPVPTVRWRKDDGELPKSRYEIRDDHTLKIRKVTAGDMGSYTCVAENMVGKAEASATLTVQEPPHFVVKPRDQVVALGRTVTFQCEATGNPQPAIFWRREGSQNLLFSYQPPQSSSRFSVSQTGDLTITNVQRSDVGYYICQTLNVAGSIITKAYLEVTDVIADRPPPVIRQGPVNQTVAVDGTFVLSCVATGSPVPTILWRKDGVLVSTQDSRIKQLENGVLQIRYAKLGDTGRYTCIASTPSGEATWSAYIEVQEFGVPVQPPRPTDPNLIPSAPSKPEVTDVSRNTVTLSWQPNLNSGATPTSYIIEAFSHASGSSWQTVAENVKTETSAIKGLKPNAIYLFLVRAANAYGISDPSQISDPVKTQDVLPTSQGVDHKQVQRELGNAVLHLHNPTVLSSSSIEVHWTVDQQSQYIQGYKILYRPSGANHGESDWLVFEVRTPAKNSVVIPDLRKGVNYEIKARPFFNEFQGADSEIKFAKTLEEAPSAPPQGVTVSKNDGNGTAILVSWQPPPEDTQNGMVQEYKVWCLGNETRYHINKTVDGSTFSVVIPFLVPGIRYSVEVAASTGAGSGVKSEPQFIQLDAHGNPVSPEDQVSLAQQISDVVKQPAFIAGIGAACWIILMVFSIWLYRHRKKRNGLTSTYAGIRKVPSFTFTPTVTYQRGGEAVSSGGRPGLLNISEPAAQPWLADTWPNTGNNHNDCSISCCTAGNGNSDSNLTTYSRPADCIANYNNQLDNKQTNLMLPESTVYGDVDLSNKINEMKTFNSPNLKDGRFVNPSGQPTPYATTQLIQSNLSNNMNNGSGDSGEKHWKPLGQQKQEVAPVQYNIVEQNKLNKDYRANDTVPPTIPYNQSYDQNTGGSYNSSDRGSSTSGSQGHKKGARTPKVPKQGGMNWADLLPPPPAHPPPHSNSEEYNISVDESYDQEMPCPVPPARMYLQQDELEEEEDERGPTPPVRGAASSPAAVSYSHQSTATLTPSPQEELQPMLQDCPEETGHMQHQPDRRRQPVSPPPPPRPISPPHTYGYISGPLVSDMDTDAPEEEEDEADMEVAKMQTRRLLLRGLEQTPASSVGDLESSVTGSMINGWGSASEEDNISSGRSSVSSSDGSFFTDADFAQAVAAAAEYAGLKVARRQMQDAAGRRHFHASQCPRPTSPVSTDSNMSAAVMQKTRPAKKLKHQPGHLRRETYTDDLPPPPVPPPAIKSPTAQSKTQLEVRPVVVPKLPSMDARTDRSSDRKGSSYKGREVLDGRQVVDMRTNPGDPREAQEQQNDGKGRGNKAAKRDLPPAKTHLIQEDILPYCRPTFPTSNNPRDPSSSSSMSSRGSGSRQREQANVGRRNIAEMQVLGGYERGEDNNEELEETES

Kd: 5.6 µM
Substance: SRGAP2A:F-BARC hetero-dimer (from UniProt O75044 1-799; P0DJJ0 1-355) (complex)
